Laboratory results reported in the supplement of paper PMC10065799, “High-throughput profiling of sequence recognition by tyrosine kinases and SH2 domains using bacterial peptide display” (eLife, 2023).

Each sequence was assayed on Fer (mouse) (assay: phosphorylation enrichment, bacterial display (enrichment ratio); higher = better substrate or ligand; peptides without Tyr show the background).
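Also: 11-residue human phosphosite peptides and single-mutation variants displayed on the E. coli surface, counted by deep sequencing, each peptide's frequency after selection divided by its frequency in the unselected input library; frequency after pTyr selection over input frequency; kinase dosed for 20-30% of maximal phosphorylation in three min.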

GLTSTYAGIRK [ROBO1_Y932] was tested. Which phosphorylation enrichment did it give?
The phosphorylation enrichment was 0.521.

Which phosphorylation enrichment does the source give for SPGGDYAAMGA [ERBB3_Y1276_G1271S] here?
Its phosphorylation enrichment is 0.456.

For DTNIAYCLHPR [POMT1_Y581_W582C], which phosphorylation enrichment is on record?
Its phosphorylation enrichment is 0.505.

How did the phosphorylation enrichment turn out when GCVSKYSGVFS [TUBGCP6_Y1624] was run?
The phosphorylation enrichment was 0.403.

Which phosphorylation enrichment does the source give for EADRKYEEVAR [TPM3_Y163] here?
The phosphorylation enrichment was 0.712.

With QRALLYEDTLY [UNC13D_Y56_A59T] as the sequence, how does the phosphorylation enrichment read?
The phosphorylation enrichment was 12.1.

With IDDNEYAFLKA [HNF4A_Y286_YF] as the sequence, how does the phosphorylation enrichment read?
The phosphorylation enrichment was 0.659.

How did the phosphorylation enrichment turn out when DESEDYRDTVV [CNNM3_Y456] was run?
Its phosphorylation enrichment is 0.78.

How did the phosphorylation enrichment turn out when FIGCIYLFLTK [GARS1_Y414_R412C_YF] was run?
The phosphorylation enrichment was 0.456.

With HLRAGYIIPLQ [GAA_Y822] as the sequence, how does the phosphorylation enrichment read?
The phosphorylation enrichment was 0.257.

PVDVAYRHGYF [PLEC_Y2967_R2969H] was tested. Which phosphorylation enrichment did it give?
Its phosphorylation enrichment is 0.543.

For MSNFAYVKREV [SCN1A_Y1694], which phosphorylation enrichment is on record?
The phosphorylation enrichment was 0.419.

How did the phosphorylation enrichment turn out when HYGNNYRDVLQ [MACC1_Y803] was run?
Its phosphorylation enrichment is 0.565.

With PVDTYYDSTRG [DYNC2H1_Y2231_M2227V] as the sequence, how does the phosphorylation enrichment read?
Its phosphorylation enrichment is 0.713.

How did the phosphorylation enrichment turn out when ENEGTYVCIAT [ADAMTSL3_Y1365] was run?
Its phosphorylation enrichment is 1.3.

With LQPNNYQFCGG [CSF1R_Y969] as the sequence, how does the phosphorylation enrichment read?
The phosphorylation enrichment was 0.627.

With KPMDTYYDSTR [DYNC2H1_Y2230] as the sequence, how does the phosphorylation enrichment read?
Its phosphorylation enrichment is 0.447.

Which phosphorylation enrichment does the source give for ADDSYYTVRSA [ZAP70_Y493_A495V] here?
Its phosphorylation enrichment is 0.425.

For QRRLVYYEGGA [RYR1_Y245], which phosphorylation enrichment is on record?
Its phosphorylation enrichment is 0.536.

How did the phosphorylation enrichment turn out when CTTIHYSYMCN [TP53_Y234_N235S] was run?
The phosphorylation enrichment was 1.01.

For MNLLGYRQVRS [CHST4_Y359_H361Q], which phosphorylation enrichment is on record?
Its phosphorylation enrichment is 0.359.

KLFFHYDPKLC [INSR_Y457_N458D] was tested. Which phosphorylation enrichment did it give?
The phosphorylation enrichment was 0.47.

Which phosphorylation enrichment does the source give for RNDRVYQPLRD [CD3D_Y149_Q147R] here?
The phosphorylation enrichment was 0.475.

With FMLFQYLKQIE [RPAP3_Y569_D564Y_YF] as the sequence, how does the phosphorylation enrichment read?
Its phosphorylation enrichment is 0.506.

Which phosphorylation enrichment does the source give for FSLIHYAGIVV [MYH7_Y582_D587V] here?
Its phosphorylation enrichment is 0.729.

PVDGEYFTLQI [TP53_Y327_L323V] was tested. Which phosphorylation enrichment did it give?
The phosphorylation enrichment was 1.31.

ILDEAYVMASV [EGFR_Y764] was tested. Which phosphorylation enrichment did it give?
Its phosphorylation enrichment is 0.538.

IDGLEYLHSQG [STK11_Y166] was tested. Which phosphorylation enrichment did it give?
The phosphorylation enrichment was 0.426.

DGNIDYAEFAK [MCFD2_Y138_Y135N] was tested. Which phosphorylation enrichment did it give?
The phosphorylation enrichment was 0.445.

Which phosphorylation enrichment does the source give for YSSLGYPPPEG [ZSWIM4_Y87] here?
Its phosphorylation enrichment is 0.67.

How did the phosphorylation enrichment turn out when ATPKGYETDAS [OTC_Y223_P225T] was run?
The phosphorylation enrichment was 0.416.

With ECKLRYSRKEG [PTPN11_Y263_L262R] as the sequence, how does the phosphorylation enrichment read?
Its phosphorylation enrichment is 0.376.

DGMADYSDPSY [CDC5L_Y459] was tested. Which phosphorylation enrichment did it give?
Its phosphorylation enrichment is 0.486.

Each sequence was assayed against EPHB2 (UniProt P29323) in the same assay as above.
Sequence of EPHB2 (P29323 whole entry, looked up): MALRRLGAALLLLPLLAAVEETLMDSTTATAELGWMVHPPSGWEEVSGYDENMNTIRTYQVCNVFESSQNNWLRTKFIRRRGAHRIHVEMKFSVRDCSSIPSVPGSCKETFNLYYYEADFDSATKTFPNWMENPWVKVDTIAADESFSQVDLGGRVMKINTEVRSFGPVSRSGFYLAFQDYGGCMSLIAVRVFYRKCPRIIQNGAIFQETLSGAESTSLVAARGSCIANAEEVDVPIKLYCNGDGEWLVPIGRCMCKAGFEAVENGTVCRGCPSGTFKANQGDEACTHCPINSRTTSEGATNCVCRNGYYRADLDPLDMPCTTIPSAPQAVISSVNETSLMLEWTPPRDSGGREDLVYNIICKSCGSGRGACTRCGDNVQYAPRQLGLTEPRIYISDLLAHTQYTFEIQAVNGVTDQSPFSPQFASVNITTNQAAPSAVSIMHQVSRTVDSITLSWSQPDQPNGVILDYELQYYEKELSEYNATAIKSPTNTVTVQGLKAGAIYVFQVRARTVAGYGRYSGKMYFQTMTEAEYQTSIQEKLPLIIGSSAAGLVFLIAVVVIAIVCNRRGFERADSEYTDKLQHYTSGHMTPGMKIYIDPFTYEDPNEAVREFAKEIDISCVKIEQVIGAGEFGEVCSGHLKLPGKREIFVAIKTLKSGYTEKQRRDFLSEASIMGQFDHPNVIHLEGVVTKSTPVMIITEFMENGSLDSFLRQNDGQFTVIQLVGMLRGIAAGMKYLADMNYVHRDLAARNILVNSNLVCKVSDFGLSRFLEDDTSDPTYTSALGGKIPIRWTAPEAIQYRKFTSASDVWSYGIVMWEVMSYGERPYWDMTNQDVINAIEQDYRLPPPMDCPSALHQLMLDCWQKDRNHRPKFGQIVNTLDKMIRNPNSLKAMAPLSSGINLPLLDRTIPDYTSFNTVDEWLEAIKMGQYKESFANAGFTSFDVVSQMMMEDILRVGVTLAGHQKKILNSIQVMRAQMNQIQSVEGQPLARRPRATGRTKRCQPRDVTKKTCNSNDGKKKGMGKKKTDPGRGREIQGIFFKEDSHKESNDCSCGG

How did the phosphorylation enrichment turn out when GLTSTYAGIRK [ROBO1_Y932] was run?
Its phosphorylation enrichment is 0.492.

For SPGGDYAAMGA [ERBB3_Y1276_G1271S], which phosphorylation enrichment is on record?
Its phosphorylation enrichment is 0.901.

DTNIAYCLHPR [POMT1_Y581_W582C] was tested. Which phosphorylation enrichment did it give?
The phosphorylation enrichment was 0.532.

Which phosphorylation enrichment does the source give for GCVSKYSGVFS [TUBGCP6_Y1624] here?
The phosphorylation enrichment was 0.458.

How did the phosphorylation enrichment turn out when EADRKYEEVAR [TPM3_Y163] was run?
Its phosphorylation enrichment is 0.742.

For QRALLYEDTLY [UNC13D_Y56_A59T], which phosphorylation enrichment is on record?
Its phosphorylation enrichment is 12.5.

How did the phosphorylation enrichment turn out when IDDNEYAFLKA [HNF4A_Y286_YF] was run?
The phosphorylation enrichment was 0.597.

How did the phosphorylation enrichment turn out when DESEDYRDTVV [CNNM3_Y456] was run?
The phosphorylation enrichment was 0.931.

For FIGCIYLFLTK [GARS1_Y414_R412C_YF], which phosphorylation enrichment is on record?
Its phosphorylation enrichment is 0.49.

HLRAGYIIPLQ [GAA_Y822] was tested. Which phosphorylation enrichment did it give?
Its phosphorylation enrichment is 0.453.

How did the phosphorylation enrichment turn out when PVDVAYRHGYF [PLEC_Y2967_R2969H] was run?
Its phosphorylation enrichment is 1.48.

How did the phosphorylation enrichment turn out when MSNFAYVKREV [SCN1A_Y1694] was run?
Its phosphorylation enrichment is 0.437.

With HYGNNYRDVLQ [MACC1_Y803] as the sequence, how does the phosphorylation enrichment read?
Its phosphorylation enrichment is 0.559.

How did the phosphorylation enrichment turn out when PVDTYYDSTRG [DYNC2H1_Y2231_M2227V] was run?
Its phosphorylation enrichment is 0.608.

How did the phosphorylation enrichment turn out when ENEGTYVCIAT [ADAMTSL3_Y1365] was run?
Its phosphorylation enrichment is 1.16.

For LQPNNYQFCGG [CSF1R_Y969], which phosphorylation enrichment is on record?
The phosphorylation enrichment was 2.2.

With KPMDTYYDSTR [DYNC2H1_Y2230] as the sequence, how does the phosphorylation enrichment read?
The phosphorylation enrichment was 0.675.

With ADDSYYTVRSA [ZAP70_Y493_A495V] as the sequence, how does the phosphorylation enrichment read?
Its phosphorylation enrichment is 0.637.

For QRRLVYYEGGA [RYR1_Y245], which phosphorylation enrichment is on record?
Its phosphorylation enrichment is 0.606.

With CTTIHYSYMCN [TP53_Y234_N235S] as the sequence, how does the phosphorylation enrichment read?
The phosphorylation enrichment was 0.628.

With MNLLGYRQVRS [CHST4_Y359_H361Q] as the sequence, how does the phosphorylation enrichment read?
The phosphorylation enrichment was 0.448.

For KLFFHYDPKLC [INSR_Y457_N458D], which phosphorylation enrichment is on record?
Its phosphorylation enrichment is 0.516.

With RNDRVYQPLRD [CD3D_Y149_Q147R] as the sequence, how does the phosphorylation enrichment read?
Its phosphorylation enrichment is 0.432.

With FMLFQYLKQIE [RPAP3_Y569_D564Y_YF] as the sequence, how does the phosphorylation enrichment read?
The phosphorylation enrichment was 0.716.

With FSLIHYAGIVV [MYH7_Y582_D587V] as the sequence, how does the phosphorylation enrichment read?
Its phosphorylation enrichment is 0.59.

For PVDGEYFTLQI [TP53_Y327_L323V], which phosphorylation enrichment is on record?
The phosphorylation enrichment was 1.36.

Which phosphorylation enrichment does the source give for ILDEAYVMASV [EGFR_Y764] here?
The phosphorylation enrichment was 0.559.

With IDGLEYLHSQG [STK11_Y166] as the sequence, how does the phosphorylation enrichment read?
Its phosphorylation enrichment is 0.499.

How did the phosphorylation enrichment turn out when DGNIDYAEFAK [MCFD2_Y138_Y135N] was run?
Its phosphorylation enrichment is 0.545.

For YSSLGYPPPEG [ZSWIM4_Y87], which phosphorylation enrichment is on record?
The phosphorylation enrichment was 0.508.

For ATPKGYETDAS [OTC_Y223_P225T], which phosphorylation enrichment is on record?
The phosphorylation enrichment was 0.543.

For ECKLRYSRKEG [PTPN11_Y263_L262R], which phosphorylation enrichment is on record?
The phosphorylation enrichment was 0.533.

DGMADYSDPSY [CDC5L_Y459] was tested. Which phosphorylation enrichment did it give?
The phosphorylation enrichment was 1.71.
